Columns and labels:
human primary B cells = experiment: Proliferation of CER+ B cells co-cultured with paclitaxel treated Jurkat cells (CELLTRACE Violet dilution); type: cell-based; conditions: 5 days co-culture with paclitaxel (30 μM) treated Jurkat cells, no exogenous cytokines
Protocol: The proliferation capacity of CER19+ and CER21+ human primary B cells was evaluated by co-culture with paclitaxel (30 μM) treated Jurkat lymphoma cells. CER-transduced B cells were labeled with CELLTRACE Violet and then co-cultured with paclitaxel treated Jurkat cells a target cell to effector cell ratio of 5:1 at 37° C. in the absence of exogenous cytokines for 5 days. Proliferation of CER19+ or CER21+B cells was assessed by flow cytometry by measuring dilution of CELLTRACE Violet (FIG. 23). Both CER19+ and CER21+ B cells increased approximately 10-fold after 5 days of co-culture in the absence of exogenous cytokines.

[1] = system: dexamethasone treated thymocytes; experiment: Phagocytic activity of CER+ Ba/F3 cells against primary apoptotic thymocytes; type: cell-based, C3H mouse; conditions: for engulfment of dexamethasone-treated thymocytes: target:effector 10:1, 3 hours or overnight, fluorescent microscopy, vs EGFRt control
Protocol: One day prior to phagocytic assay, primary thymocytes were isolated from a C3H mouse (Charles River Laboratories International, Inc.). Thymocytes were cultured in complete RPMI 1640 growth media supplemented with 10% fetal bovine serum and 1% penicillin-streptomycin in a 6-well plate. To induce apoptosis and phosphatidylserine expression on the cell surface, thymocytes were treated with 1 μM dexamethansone for 24 hours. Untreated thymocytes were used as a negative control. Thymocytes were collected from the 6-well plates, washed once with sterile 1X PBS, and then stained with 1 ng/μ1 pH sensitive pHrodo™ Red dye (ThermoFisher Scientific, Catalog #P36600) in PBS at room temperature for 15 minutes. Labeling target cells with pHrodo Red dye permits visualization of cells that are engulfed and transported into lysosomes due to their increased light emission in the acidic lysosomal environment (Miksa et al., 2009, Immunol. Methods 342:71-7). The cells were then supplemented with growth media and washed one more time to remove any excess pHrodo Red. pHrodo Red stained thymocytes were plated on a flat bottom 96 well plate at 250,000 cells/well in RMPI 1640 complete media. […]
[…] The 96 well plate was then viewed using KEYENCE BZ-X710 fluorescence microscope, 20X objective. […]
A phagocytic index was calculated by multiplying [mean of total number of engulfed target cells/total number of counted CER modified cells (e.g., phagocytic frequency)] by [average area of target cell staining per CER+Ba/F3 cell x 100 (e.g., hybrid capture)] as compared to control EGFRt+Ba/F3 cells (see, FIG. 8). […]
Primary C3H mouse thymocytes were isolated, treated with dexamethasone, and stained with pHrodo Red as described in Example 1. […] Co-culture experiments were carried out at a 10:1 target cell to effector cell ratio, and Ba/F3 CER07^+tEGFR^+ cells were quantified for phagocytosis by fluorescence microscopy and FACs as described in Example 1. […]

[2] = system: CT26 murine colon carcinoma cells; experiment: Phagocytic activity of CER+ Ba/F3 cells against murine cell line CT26; type: cell-based; conditions: target:effector 5:1, 3 hours
Protocol: One day prior to the phagocytosis assay, CT26 murine colon carcinoma cells were cultured in complete RPMI 1640 growth media supplemented with 10% fetal bovine serum and 1% penicillin-streptomycin in a 6-well plate and treated with 1 mM staurosporine (STS) for 12 hours to induce apoptosis. Untreated CT26 cells were used as a negative control.
On the day of the phagocytosis assay, CT26 cells were collected, washed twice with 1×PBS to remove excess staurosporine and then stained with 1 ng/μ1 pHrodo Red in PBS at room temperature for 15 minutes. […]
Target CT26 cells were co-cultured with stained, CER05^+tEGFR^+ cells at a ratio of 5:1 (target cell:effector cell) for 3 hours at 37° C. […] The 96 well plate was then viewed using KEYENCE BZ-X710 fluorescence microscope, 20X objective. […]
A hybrid capture algorithm that detects fluorescence of pHrodo Red within CELLTRACE Violet staining area was applied to fluorescent images to quantify the area of engulfed target cells/area of CER^+ B cells or control tEGFR+ B cells (see, FIG. 12). […]
A hybrid capture algorithm that detects fluorescence of pHrodo Red within CELLTRACE Violet staining area was applied to fluorescent images to quantify the area of engulfed target cells/area of CER^+ B cells (see, FIG. 17). […]

Row | Molecule | increase of CER+ B cells (human primary B cells) | co-localization of pHrodo red labeled thymocytes with LysoTracker green vesicles ([1]; 6 hours, 50 nM LysoTracker green) | engulfment of dexamethasone-treated thymocytes [1] | phagocytosis of staurosporine treated CT26 cells [2]
1 | CER19: Tim4 binding and transmembrane domains, TLR5 signaling domain; SEQ ID NO:86 (protein, CER19 chimeric engulfment receptor) MSKGLLLLWLVTELWWLYLTPAASEDTIIGFLGQPVTLPCHYLSWSQSRNSMCWGKGSCPNSKCNAELLRTDGTRIISRKSTKYTLLGKVQFGEVSLTISNTNRGDSGVYCCRIEVPGWFNDVKKNVRLELRRATTTKKPTTTTRPTTTPYVTTTTPELLPTTVMTTSVLPTTTPPQTLATTAFSTAVTTCPSTTPGSFSQETTKGSAFTTESETLPASNHSQRSMMTISTDIAVLRPTGSNPGILPSTSQLTTQKTTLTTSESLQKTTKSHQINSRQTILIIACCVGFVLMVLLFLAFLTKFRGFCFICYKTAQRLVFKDHPQGTEPDMYKYDAYLCFSSKDFTWVQNALLKHLDTQYSDQNRFNLCFEERDFVPGENRIANIQDAIWNSRKIVCLVSRHFLRDGWCLEAFSYAQGRCLSDLNSALIMVVVGSLSQYQLMKHQSIRGFVQKQQYLRWPEDFQDVGWFLHKLSQQILKKEKEKKKDNNIPLQTVATIS | approximately 10 fold | – | – | –
2 | CER05: Tim4 binding domain, Tim4 transmembrane domain, TLR4 signaling domain; SEQ ID NO:81 (protein, CER05 chimeric engulfment receptor) MSKGLLLLWLVTELWWLYLTPAASEDTIIGFLGQPVTLPCHYLSWSQSRNSMCWGKGSCPNSKCNAELLRTDGTRIISRKSTKYTLLGKVQFGEVSLTISNTNRGDSGVYCCRIEVPGWFNDVKKNVRLELRRATTTKKPTTTTRPTTTPYVTTTTPELLPTTVMTTSVLPTTTPPQTLATTAFSTAVTTCPSTTPGSFSQETTKGSAFTTESETLPASNHSQRSMMTISTDIAVLRPTGSNPGILPSTSQLTTQKTTLTTSESLQKTTKSHQINSRQTILIIACCVGFVLMVLLFLAFLKFYFHLMLLAGCIKYGRGENIYDAFVIYSSQDEDWVRNELVKNLEEGVPPFQLCLHYRDFIPGVAIAANIIHEGFHKSRKVIVVVSQHFIQSRWCIFEYEIAQTWQFLSSRAGIIFIVLQKVEKTLLRQQVELYRLLSRNTYLEWEDSVLGRHIFWRRLRKALLDGKSWNPEGTVGTGCNWQEATSI | – | pHrodo-labeled target cells have been internalized into lysosomes | engulf dexamethasone-treated thymocytes | in vitro phagocytosis
3 | CER07: Tim4 binding domain, TLR4 juxtamembrane spacer, TLR4 transmembrane domain, TLR4 signaling domain; SEQ ID NO:83 (protein, CER07 chimeric engulfment receptor) MSKGLLLLWLVTELWWLYLTPAASEDTIIGFLGQPVTLPCHYLSWSQSRNSMCWGKGSCPNSKCNAELLRTDGTRIISRKSTKYTLLGKVQFGEVSLTISNTNRGDSGVYCCRIEVPGWFNDVKKNVRLELRRATTTKKPTTTTRPTTTPYVTTTTPELLPTTVMTTSVLPTTTPPQTLATTAFSTAVTTCPSTTPGSFSQETTKGSAFTTESETLPASNHSQRSMMTISTDIAVLRPTGSNPGILPSTSQLTTQKTTLTTSESLQKTTKSHQINSRQTPVLSLNITCQMNKTIIGVSVLSVLVVSVVAVLVYKFYFHLMLLAGCIKYGRGENIYDAFVIYSSQDEDWVRNELVKNLEEGVPPFQLCLHYRDFIPGVAIAANIIHEGFHKSRKVIVVVSQHFIQSRWCIFEYEIAQTWQFLSSRAGIIFIVLQKVEKTLLRQQVELYRLLSRNTYLEWEDSVLGRHIFWRRLRKALLDGKSWNPEGTVGTGCNWQEATSI | – | – | engulfed dexamethasone-treated thymocytes | engulfed staurosporine treated CT26 cells

Reference: US11708423B2, “Chimeric engulfment receptor molecules and methods of use” (CERO THERAPEUTICS, INC., priority 2017, dated 2023)
